Test results from patent US20240409663A1 (CONCEPT TO MEDICINE BIOTECH, published 2024).
Where two headings read alike, the source gives them in different places.

Assays:
[1] = biological target: T1, human GPC3 on cells (human, UniProt P51654 25-554); assay: FACS, HEPG2 cells
[2] = biological target: T1, human GPC3 on cells; assay: FACS, GPC3-CHOK1 cells
[3] = biological target: T1, human GPC3 on cells; assay: FACS, Huh-7 cells
[4] = biological target: T1, human GPC3 on cells; assay: cell-based or functional assay
[5] = biological target: T1, human GPC3 on cells; assay: FACS, Huh-7 cells; remark: listed apart in the source
[6] = biological target: T1, human GPC3 on cells; assay: FACS, GPC3-CHOK1 cells; remark: listed apart in the source
[7] = biological target: T1, human GPC3 on cells; assay: FACS, GPC3-CHOK1 cells; remark: listed apart in the source
[8] = biological target: T1, human GPC3 on cells; assay: FACS, GPC3-CHOK1 cells; remark: listed apart in the source
[9] = biological target: T1, human GPC3 on cells; assay: FACS, HEPG2 cells; remark: listed apart in the source
[10] = biological target: T1, human GPC3 on cells; assay: FACS, Hep3B cells
[11] = biological target: T1, human GPC3 on cells; assay: FACS, Huh-7 cells; remark: listed apart in the source
[12] = biological target: T1, human GPC3 on cells; assay: FACS, GPC3-CHOK1 cells; remark: listed apart in the source
[13] = biological target: T1, human GPC3 on cells; assay: FACS on GPC3-CHOK1 cells, Alexa Fluor 647 anti-human IgG, AF647-MFI
[14] = biological target: T1, human GPC3 on cells; assay: FACS, HEPG2 cells; remark: listed apart in the source
[15] = biological target: T1, human GPC3 on cells; assay: FACS, Hep3B cells; remark: listed apart in the source
[16] = biological target: T1, human GPC3 on cells; assay: FACS, GPC3-CHOK1 cells; remark: listed apart in the source
[17] = biological target: T1, human GPC3 on cells; assay: FACS, GPC3-CHOK1 cells
Source text: (§1) FACS was used to evaluate the binding activity of 52H5D3B8-6 #-VH1+VL1 and 52H5D3B8-6 #-VH2+VL3 with comparison to GC33 (Chugai Pharmaceutical) and Y035 (Carsgen Therapeutics, U.S. Patent Application US20190046659) on human GPC3 over-expressed CHOK1 cells and HEPG2 cells.

[18] = biological target: T1, human GPC3 on cells; assay: cell-based or functional assay; remark: listed apart in the source
[19] = biological target: T2, human GPC3-his tag protein (human, UniProt P51654 25-559, limits assumed); assay: SPR Biacore 8K, mAb captured, affinity ranking
T2 construct: recombinant soluble antigen used as analyte in all Biacore runs; also called recombinant GPC3 protein; rhGPC3-His; not shown: His tag

[20] = biological target: T1, human GPC3 on cells; assay: FACS, Huh-7 cells
Method: (§2) To evaluate the antigen binding property, the humanized antibodies were analyzed for their binding to human GPC3 over-expressed CHOK1 cells, HEPG2 cells, Hep3B cells and Huh-7 cells by FACS. Briefly, GPC3-CHOK1 cells, HEPG2 cells, Hep3B cells and Huh-7 cells were firstly incubated with Fc blocking reagent at 4° C. for 15 mins. Cells were washed by FACS buffer and divided to each well with 4-fold serially diluted humanized antibodies starting at 10 μg/mL at 4° C. for 60 mins. Cells were washed by FACS buffer and fixed with 2% PFA at RT for 15 mins. […] The 16 humanized antibodies were separated into two plates.

[21] = biological target: T1, human GPC3 on cells; assay: FACS, Hep3B cells
Method: as §2

[22] = biological target: T1, human GPC3 on cells; assay: FACS, HEPG2 cells
Method: as §2

[23] = biological target: T2, human GPC3-his tag protein; assay: SPR Biacore, mAb captured on CM5, GPC3-his dilution series (full kinetics)
Method: The binding of the humanized antibodies to recombinant GPC3 protein (human GPC3-his tag) was tested by Biacore using a capture method. 52H5D3B8-6 #-V+VL, 52H5D3B8-6 #-VH1+VL1, 52H5D3B8-6 #-VH1+VL3, 52H5D3B8-6 #-V1+VL4, 52H5D3B8-6 #-VH2+VL4, 52H5D3B8-6 #-VH3+VL1, 52H5D3B8-6 #-VH3+VL3 mAbs were captured using CM5 sensor chip. A serial dilution of human GPC3-his tag protein was injected over captured antibody for 2 mins at a flow rate of […]. The antigen was allowed to dissociate for 360 s. All the experiments were carried out on a Biacore T200.

[24] = biological target: T1, human GPC3 on cells; assay: FACS, HEPG2 cells; remark: listed apart in the source
Source text: as §1

[25] = biological target: T1, human GPC3 on cells; assay: cell-based or functional assay; remark: listed apart in the source
[26] = biological target: T1, human GPC3 on cells; assay: FACS, GPC3-CHOK1 cells; remark: listed apart in the source
Method: as §2

GC33 (Chugai Pharmaceutical) (antibody)
EC50 [1]: 0.181 µg/mL | EC50 [2]: 0.122 µg/mL | EC50 [3]: 0.953 nM | EC50 of ADCC cytotoxicity (primary NK cells, LDH), HEPG2 cells [4]: 0.276 nM | EC50 of ADCC cytotoxicity (primary NK cells, LDH), Huh-7 cells [4]: 0.172 nM | EC50 of ADCC signaling (Jurkat-hCD16a-NFAT luciferase reporter), HEPG2 cells [4]: 0.415 nM | EC50 of ADCC signaling (Jurkat-hCD16a-NFAT luciferase reporter), Huh-7 cells [4]: 0.29 nM | EC50 [5]: 0.182 µg/mL | EC50 [6]: 0.131 µg/mL | EC50 [7]: 0.956 nM | EC50 [8]: 0.784 nM | EC50 [9]: 1.28 nM | EC50 [10]: 0.341 µg/mL | EC50 [11]: 0.147 µg/mL | EC50 [12]: 0.993 nM | EC50 (read off the curve) [13]: 0.1 µg/mL | EC50 [14]: 0.745 nM | EC50 [15]: 0.375 µg/mL | EC50 [16]: 0.166 µg/mL

B1: 52H5D3B8-6#-VH1+VL1 (antibody, V domains shown)
VH: QVQLVQSGAEVKKPGASVKVSCKASGYTFTDYEMHWVRQAPGQGLEWMGAIHPGSGGTAYNQKFKGRVTMTRDTSTSTVYMELSSLRSEDTAVYYCARYYSYAYWGQGTLVTVSS
VL: DIVMTQTPLSLSVTPGQPASISCRSSQSLVHSNGNTYLQWYLQKPGQSPQLLIYKVSNRFSGVPDRFSGSGSGTDFTLKISRVEAEDVGVYYCFQSIHVPYTFGGGTKLEIK
notes: humanized
EC50 [17]: 0.332 nM | EC50 of ADCC cytotoxicity (primary NK cells, LDH), HEPG2 cells [18]: 0.0845 nM | EC50 of ADCC cytotoxicity (primary NK cells, LDH), Huh-7 cells [18]: 0.108 nM | Kd [19]: 1.97 nM | koff [19]: 0.00112 s⁻¹ | kon [19]: 567000 M⁻¹ s⁻¹ | EC50 [20]: 0.0362 µg/mL | EC50 [21]: 0.0626 µg/mL | EC50 [22]: 0.0411 µg/mL | Kd [23]: 2.24 nM | koff [23]: 0.00111 s⁻¹ | kon [23]: 497000 M⁻¹ s⁻¹ | EC50 [24]: 0.342 nM | EC50 of ADCC signaling (Jurkat-hCD16a-NFAT luciferase reporter), HEPG2 cells [25]: 0.176 nM | EC50 of ADCC signaling (Jurkat-hCD16a-NFAT luciferase reporter), Huh-7 cells [25]: 0.322 nM | EC50 [26]: 0.038 µg/mL
